Experimental data published in patent US20140087995A1 (published 2014).
Numbered stars: 1 amine (or outer) side, 2 acyl side, 3 side chain; on linkers, the order of the positions; unused ones are H or OH. Bridge positions count the residues as written; N and C are the ends. Side chains are listed from the residue outwards. Ends that are not written are not given here. * marks the point of attachment. C20 diacid = O=C(O)CCCCCCCCCCCCCCCCCCC(=O)*; γGlu = O=C(O)[C@H](CCC(=O)[*:2])N[*:1]

T1: rat calcitonin receptor (rat, UniProt P32214 25-516)
T1 construct: whole, on cells; Membranes of transiently transfected BHK tk'ts 13 cells; also called rCTR; rat calcitonin (a) receptor
T1 sequence (looked up): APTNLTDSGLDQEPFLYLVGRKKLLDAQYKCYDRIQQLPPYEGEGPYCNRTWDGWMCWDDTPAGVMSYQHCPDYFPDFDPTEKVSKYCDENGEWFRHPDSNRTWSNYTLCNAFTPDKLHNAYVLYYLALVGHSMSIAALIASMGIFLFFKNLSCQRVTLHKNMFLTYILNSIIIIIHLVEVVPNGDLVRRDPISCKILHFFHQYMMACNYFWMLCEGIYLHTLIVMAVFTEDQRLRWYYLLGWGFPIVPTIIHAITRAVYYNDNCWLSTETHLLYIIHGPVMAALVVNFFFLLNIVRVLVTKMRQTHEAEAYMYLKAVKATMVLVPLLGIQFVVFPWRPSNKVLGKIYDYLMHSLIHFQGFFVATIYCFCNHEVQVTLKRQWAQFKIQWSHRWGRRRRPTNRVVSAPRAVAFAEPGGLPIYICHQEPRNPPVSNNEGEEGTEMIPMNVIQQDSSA

T2: human calcitonin receptor (human, UniProt P30988 25-474)
T2 construct: whole, on cells; Membranes of stably transfected cells; also called hCTR; hCT
T2 sequence (looked up): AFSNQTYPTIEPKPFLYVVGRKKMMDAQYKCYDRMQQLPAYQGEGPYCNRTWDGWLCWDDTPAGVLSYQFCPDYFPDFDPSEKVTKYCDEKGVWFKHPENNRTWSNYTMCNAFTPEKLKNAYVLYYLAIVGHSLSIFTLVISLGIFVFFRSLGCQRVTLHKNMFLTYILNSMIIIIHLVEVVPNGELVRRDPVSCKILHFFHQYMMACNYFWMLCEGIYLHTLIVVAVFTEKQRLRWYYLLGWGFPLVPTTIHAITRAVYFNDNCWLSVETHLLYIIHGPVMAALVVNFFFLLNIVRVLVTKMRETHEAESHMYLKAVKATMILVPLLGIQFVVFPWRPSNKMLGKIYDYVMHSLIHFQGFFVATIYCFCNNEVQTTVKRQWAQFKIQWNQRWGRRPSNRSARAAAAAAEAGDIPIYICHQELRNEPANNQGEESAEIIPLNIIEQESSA

T3: rat amylin receptor (rat calcitonin receptor + rat RAMP 3) (rat, UniProt P32214 25-516; Q9JJ73 23-147)
T3 construct: whole, on cells; Membranes of transiently transfected BHK tk'ts 13 cells; also called rAmylin-R; rat amylin 3(a) receptor
T3 sequence (looked up) 1: T1 sequence (looked up)
T3 sequence (looked up) 2: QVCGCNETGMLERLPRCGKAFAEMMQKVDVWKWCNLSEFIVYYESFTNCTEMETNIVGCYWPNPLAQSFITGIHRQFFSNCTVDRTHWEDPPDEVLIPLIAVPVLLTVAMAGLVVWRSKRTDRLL

B1: N^ε1-[(4S)-4-carboxy-4-(19-carboxynonadecanoylamino)butanoyl]-[Ala14,Arg17,Pro21,Pro27,Pro34]-h-amylin (peptide)
peptide: K([γGlu-C20 diacid])CNTATCATQRLAAFLRHSSPNFGAIPSSTNVGPNTY-NH2
modifications: disulfide 2-7; N-terminus assumed
SMILES: CC[C@H](C)[C@H](NC(=O)[C@H](C)NC(=O)CNC(=O)[C@H](Cc1ccccc1)NC(=O)[C@H](CC(N)=O)NC(=O)[C@@H]1CCCN1C(=O)[C@H](CO)NC(=O)[C@H](CO)NC(=O)[C@H](Cc1c[nH]cn1)NC(=O)[C@H](CCCNC(=N)N)NC(=O)[C@H](CC(C)C)NC(=O)[C@H](Cc1ccccc1)NC(=O)[C@H](C)NC(=O)[C@H](C)NC(=O)[C@H](CC(C)C)NC(=O)[C@H](CCCNC(=N)N)NC(=O)[C@H](CCC(N)=O)NC(=O)[C@@H](NC(=O)[C@H](C)NC(=O)[C@@H]1CSSC[C@H](NC(=O)[C@@H](N)CCCCNC(=O)CC[C@H](NC(=O)CCCCCCCCCCCCCCCCCCC(=O)O)C(=O)O)C(=O)N[C@@H](CC(N)=O)C(=O)N[C@@H]([C@@H](C)O)C(=O)N[C@@H](C)C(=O)N[C@@H]([C@@H](C)O)C(=O)N1)[C@@H](C)O)C(=O)N1CCC[C@H]1C(=O)N[C@@H](CO)C(=O)N[C@@H](CO)C(=O)N[C@H](C(=O)N[C@@H](CC(N)=O)C(=O)N[C@H](C(=O)NCC(=O)N1CCC[C@H]1C(=O)N[C@@H](CC(N)=O)C(=O)N[C@H](C(=O)N[C@@H](Cc1ccc(O)cc1)C(N)=O)[C@@H](C)O)C(C)C)[C@@H](C)O
notes: Synthetic acylated analogue of human amylin; also called compound 94
B2: N^ε1-[(4S)-4-carboxy-4-(19-carboxynonadecanoylamino)butanoyl]-[Asp14,Arg17,Pro21,Pro27,Pro34,Arg35]-h-amylin (peptide)
peptide: K([γGlu-C20 diacid])CNTATCATQRLADFLRHSSPNFGAIPSSTNVGPRTY-NH2
modifications: disulfide 2-7; N-terminus assumed
SMILES: CC[C@H](C)[C@H](NC(=O)[C@H](C)NC(=O)CNC(=O)[C@H](Cc1ccccc1)NC(=O)[C@H](CC(N)=O)NC(=O)[C@@H]1CCCN1C(=O)[C@H](CO)NC(=O)[C@H](CO)NC(=O)[C@H](Cc1c[nH]cn1)NC(=O)[C@H](CCCNC(=N)N)NC(=O)[C@H](CC(C)C)NC(=O)[C@H](Cc1ccccc1)NC(=O)[C@H](CC(=O)O)NC(=O)[C@H](C)NC(=O)[C@H](CC(C)C)NC(=O)[C@H](CCCNC(=N)N)NC(=O)[C@H](CCC(N)=O)NC(=O)[C@@H](NC(=O)[C@H](C)NC(=O)[C@@H]1CSSC[C@H](NC(=O)[C@@H](N)CCCCNC(=O)CC[C@H](NC(=O)CCCCCCCCCCCCCCCCCCC(=O)O)C(=O)O)C(=O)N[C@@H](CC(N)=O)C(=O)N[C@@H]([C@@H](C)O)C(=O)N[C@@H](C)C(=O)N[C@@H]([C@@H](C)O)C(=O)N1)[C@@H](C)O)C(=O)N1CCC[C@H]1C(=O)N[C@@H](CO)C(=O)N[C@@H](CO)C(=O)N[C@H](C(=O)N[C@@H](CC(N)=O)C(=O)N[C@H](C(=O)NCC(=O)N1CCC[C@H]1C(=O)N[C@@H](CCCNC(=N)N)C(=O)N[C@H](C(=O)N[C@@H](Cc1ccc(O)cc1)C(N)=O)[C@@H](C)O)C(C)C)[C@@H](C)O
notes: Synthetic acylated analogue of human amylin
B3: N^ε1-[(4S)-4-carboxy-4-(19-carboxynonadecanoylamino)butanoyl]-[Asp14,Arg17,Pro21,Pro27,Pro34,Glu35]-h-amylin (peptide)
peptide: K([γGlu-C20 diacid])CNTATCATQRLADFLRHSSPNFGAIPSSTNVGPETY-NH2
modifications: disulfide 2-7; N-terminus assumed
SMILES: CC[C@H](C)[C@H](NC(=O)[C@H](C)NC(=O)CNC(=O)[C@H](Cc1ccccc1)NC(=O)[C@H](CC(N)=O)NC(=O)[C@@H]1CCCN1C(=O)[C@H](CO)NC(=O)[C@H](CO)NC(=O)[C@H](Cc1c[nH]cn1)NC(=O)[C@H](CCCNC(=N)N)NC(=O)[C@H](CC(C)C)NC(=O)[C@H](Cc1ccccc1)NC(=O)[C@H](CC(=O)O)NC(=O)[C@H](C)NC(=O)[C@H](CC(C)C)NC(=O)[C@H](CCCNC(=N)N)NC(=O)[C@H](CCC(N)=O)NC(=O)[C@@H](NC(=O)[C@H](C)NC(=O)[C@@H]1CSSC[C@H](NC(=O)[C@@H](N)CCCCNC(=O)CC[C@H](NC(=O)CCCCCCCCCCCCCCCCCCC(=O)O)C(=O)O)C(=O)N[C@@H](CC(N)=O)C(=O)N[C@@H]([C@@H](C)O)C(=O)N[C@@H](C)C(=O)N[C@@H]([C@@H](C)O)C(=O)N1)[C@@H](C)O)C(=O)N1CCC[C@H]1C(=O)N[C@@H](CO)C(=O)N[C@@H](CO)C(=O)N[C@H](C(=O)N[C@@H](CC(N)=O)C(=O)N[C@H](C(=O)NCC(=O)N1CCC[C@H]1C(=O)N[C@@H](CCC(=O)O)C(=O)N[C@H](C(=O)N[C@@H](Cc1ccc(O)cc1)C(N)=O)[C@@H](C)O)C(C)C)[C@@H](C)O
notes: as for B2
B4: N^ε1-[(4S)-4-carboxy-4-(19-carboxynonadecanoylamino)butanoyl]-[Glu14,Arg17,Pro21,Pro27,Arg34,Glu35]-h-amylin (peptide)
peptide: K([γGlu-C20 diacid])CNTATCATQRLAEFLRHSSPNFGAIPSSTNVGRETY-NH2
modifications: disulfide 2-7; N-terminus assumed
SMILES: CC[C@H](C)[C@H](NC(=O)[C@H](C)NC(=O)CNC(=O)[C@H](Cc1ccccc1)NC(=O)[C@H](CC(N)=O)NC(=O)[C@@H]1CCCN1C(=O)[C@H](CO)NC(=O)[C@H](CO)NC(=O)[C@H](Cc1c[nH]cn1)NC(=O)[C@H](CCCNC(=N)N)NC(=O)[C@H](CC(C)C)NC(=O)[C@H](Cc1ccccc1)NC(=O)[C@H](CCC(=O)O)NC(=O)[C@H](C)NC(=O)[C@H](CC(C)C)NC(=O)[C@H](CCCNC(=N)N)NC(=O)[C@H](CCC(N)=O)NC(=O)[C@@H](NC(=O)[C@H](C)NC(=O)[C@@H]1CSSC[C@H](NC(=O)[C@@H](N)CCCCNC(=O)CC[C@H](NC(=O)CCCCCCCCCCCCCCCCCCC(=O)O)C(=O)O)C(=O)N[C@@H](CC(N)=O)C(=O)N[C@@H]([C@@H](C)O)C(=O)N[C@@H](C)C(=O)N[C@@H]([C@@H](C)O)C(=O)N1)[C@@H](C)O)C(=O)N1CCC[C@H]1C(=O)N[C@@H](CO)C(=O)N[C@@H](CO)C(=O)N[C@H](C(=O)N[C@@H](CC(N)=O)C(=O)N[C@H](C(=O)NCC(=O)N[C@@H](CCCNC(=N)N)C(=O)N[C@@H](CCC(=O)O)C(=O)N[C@H](C(=O)N[C@@H](Cc1ccc(O)cc1)C(N)=O)[C@@H](C)O)C(C)C)[C@@H](C)O
notes: as for B2
B5: N^ε1-[(4S)-4-carboxy-4-(19-carboxynonadecanoylamino)butanoyl]-[Glu14,Arg17,Pro21,Pro27,His34,Glu35]-h-amylin (peptide)
peptide: K([γGlu-C20 diacid])CNTATCATQRLAEFLRHSSPNFGAIPSSTNVGHETY-NH2
modifications: disulfide 2-7; N-terminus assumed
SMILES: CC[C@H](C)[C@H](NC(=O)[C@H](C)NC(=O)CNC(=O)[C@H](Cc1ccccc1)NC(=O)[C@H](CC(N)=O)NC(=O)[C@@H]1CCCN1C(=O)[C@H](CO)NC(=O)[C@H](CO)NC(=O)[C@H](Cc1c[nH]cn1)NC(=O)[C@H](CCCNC(=N)N)NC(=O)[C@H](CC(C)C)NC(=O)[C@H](Cc1ccccc1)NC(=O)[C@H](CCC(=O)O)NC(=O)[C@H](C)NC(=O)[C@H](CC(C)C)NC(=O)[C@H](CCCNC(=N)N)NC(=O)[C@H](CCC(N)=O)NC(=O)[C@@H](NC(=O)[C@H](C)NC(=O)[C@@H]1CSSC[C@H](NC(=O)[C@@H](N)CCCCNC(=O)CC[C@H](NC(=O)CCCCCCCCCCCCCCCCCCC(=O)O)C(=O)O)C(=O)N[C@@H](CC(N)=O)C(=O)N[C@@H]([C@@H](C)O)C(=O)N[C@@H](C)C(=O)N[C@@H]([C@@H](C)O)C(=O)N1)[C@@H](C)O)C(=O)N1CCC[C@H]1C(=O)N[C@@H](CO)C(=O)N[C@@H](CO)C(=O)N[C@H](C(=O)N[C@@H](CC(N)=O)C(=O)N[C@H](C(=O)NCC(=O)N[C@@H](Cc1c[nH]cn1)C(=O)N[C@@H](CCC(=O)O)C(=O)N[C@H](C(=O)N[C@@H](Cc1ccc(O)cc1)C(N)=O)[C@@H](C)O)C(C)C)[C@@H](C)O
notes: Synthetic acylated analogue of human amylin; also called compound 107

The binders below were run against T1, rat calcitonin receptor (assay: ratio of IC50 on rat calcitonin receptor to IC50 on rat amylin receptor (reference m40)).

First: B1
Second: B2
The “Ratio rCT/rAmylin binding” value of the first is higher: 280 for the first, 116 for the second.

First: B3
Second: B4
The “Ratio rCT/rAmylin binding” value of the first is lower: 62 for the first, 81.1 for the second.

For B5, the “Ratio rCT/rAmylin binding” value was 34.6.

The binders below were run against T2, human calcitonin receptor (assay: ratio of IC50 on human calcitonin receptor to IC50 on human amylin receptor (reference m42), SPA competition).
Procedure, shortened: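 Competition binding by SPA with cell membranes (35 ng/μL) and SPA beads in 50 mM Hepes pH 7.4 with 1 mM CaCl2, 5 mM MgCl2, 0.1% OA and 0.02% Tween20. Incubated 120 min at 25 °C with shaking, then counted.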

Going from B1 to B2, the “Ratio hCT/hAmylin binding” value rises from 46.3 to 151.

Compared with B3, B4 is higher in “Ratio hCT/hAmylin binding” value: 16.7 for the first, 28.5 for the second.

B5 was tested, and the “Ratio hCT/hAmylin binding” value was 11.1.

What follows are binders tested against T1, rat calcitonin receptor (assay: SPA competition with 125I-calcitonin on membranes of BHK tk'ts 13 cells with rat calcitonin receptor (Assay VIII)).

Compared with B1, B2 is 1.9-fold lower in IC50: 111 nM for the first, 58.5 nM for the second.

First: B3
Second: B4
The IC50 of the first is 4.6-fold lower: 18.6 nM for the first, 86.1 nM for the second. The first is the more potent here.

B5 showed an IC50 of 33.1 nM.

What follows are binders tested against T3, rat amylin receptor (rat calcitonin …) (assay: SPA competition with 125I-rat amylin on membranes of BHK tk'ts 13 cells with rat calcitonin receptor + rat RAMP3 (Assay VI)).

B1 and B2 are within 1.5-fold of each other in IC50: 0.397 nM for the first, 0.504 nM for the second.

First: B3
Second: B4
The IC50 of the first is 3.5-fold lower: 0.3 nM for the first, 1.06 nM for the second. The first is the more potent here.

B5 gave an IC50 of 0.958 nM.
